According to patent US20080131510:

Key:
[1] = test system: Lys*-Ala-Gly-Leu-Leu-Cys (SEQ ID NO:32)
[2] = test system: Lys*-Gly-Leu-Cys (SEQ ID NO:33)
[3] = test system: Lys*-Pro-Ala-Gly-Leu-Leu-Gly-Cys (SEQ ID NO:2), pendant in PEG(8000)DA hydrogel and complexed with Pt
[4] = test system: Lys*-Pro-Ala-Gly-Leu-Leu-Gly-Cys (SEQ ID NO:2)
[5] = test system: Lys*-Ala-Gly-Leu-Leu-Cys (SEQ ID NO:32); test: peptide cleavage kinetics by HPLC, 10 nM activated MMP; the filing calls Km 'affinity or binding strength'
[6] = test system: Lys*-Gly-Leu-Cys (SEQ ID NO:33); test: as above
[7] = test system: Lys*-Pro-Ala-Gly-Leu-Leu-Gly-Cys (SEQ ID NO:2); test: as above

Chain of matrix metalloprotease-9 (MMP-9), activated (chain, as listed by the source): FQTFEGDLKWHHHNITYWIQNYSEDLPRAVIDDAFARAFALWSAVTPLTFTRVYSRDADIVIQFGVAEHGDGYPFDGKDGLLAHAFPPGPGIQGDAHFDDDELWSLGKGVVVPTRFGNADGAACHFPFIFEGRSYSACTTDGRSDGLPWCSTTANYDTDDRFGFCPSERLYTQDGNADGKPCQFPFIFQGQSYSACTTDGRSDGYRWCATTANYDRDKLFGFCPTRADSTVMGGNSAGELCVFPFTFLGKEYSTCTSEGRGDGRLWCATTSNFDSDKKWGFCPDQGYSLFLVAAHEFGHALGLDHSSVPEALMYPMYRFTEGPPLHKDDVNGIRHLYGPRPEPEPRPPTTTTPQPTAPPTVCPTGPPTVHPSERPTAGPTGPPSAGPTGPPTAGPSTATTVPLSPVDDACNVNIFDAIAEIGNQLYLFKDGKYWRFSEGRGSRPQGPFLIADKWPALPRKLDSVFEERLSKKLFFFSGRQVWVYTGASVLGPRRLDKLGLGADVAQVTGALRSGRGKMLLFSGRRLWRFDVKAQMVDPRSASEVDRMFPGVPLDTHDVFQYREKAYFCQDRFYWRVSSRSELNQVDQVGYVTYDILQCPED

## matrix metalloprotease-9 (MMP-9), activated
[1]
  Kcat/Km: 252 M⁻¹ s⁻¹
  Vmax: 9.9e-10 M/s
  kcat: 0.04 s⁻¹
[2]
  Kcat/Km: 358 M⁻¹ s⁻¹
  Vmax: 5.3e-09 M/s
  kcat: 0.21 s⁻¹
[3]
  release of cleaved fragment from the PEG(8000)DA hydrogels: the addition of MMP-2 and MMP-9 showed a significantly higher release of cleaved fragment from the PEG(8000)DA hydrogels compared to the control
[4]
  Kcat/Km: 24000 M⁻¹ s⁻¹
  Vmax: 2.4e-07 M/s
  kcat: 9.6 s⁻¹
[5]
  Km: 160 µM
[6]
  Km: 600 µM
[7]
  Km: 400 µM
